Patent US20190233498A1 (H LUNDBECK A S, published 2019)
Where a chain is given by its changes, count along the chain named.

T1: human PACAP27 (human, C-terminal leucine is amidated; 125I-labelled in Example 10)
T1 peptide: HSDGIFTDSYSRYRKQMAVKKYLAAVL

T2: human PACAP38 (human, not fully specified; C-terminal lysine is amidated; N-terminal or C-terminal biotin in the HTRF and PC-12 cell binding assays)
T2 construct: synthetic peptide, bought; also called huPACAP (1-38)
T2 peptide: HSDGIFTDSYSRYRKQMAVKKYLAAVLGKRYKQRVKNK

T3: human VIP (human)
T3 construct: also called Vasoactive Intestinal Peptide
T3 peptide: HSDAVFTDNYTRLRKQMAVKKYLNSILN

B1: anti-PACAP antibody Ab5 (antibody, human IgG1, kappa, N297A, V domains shown)
VH: QSVEESGGRLVTPGTPLTLTCTVSGFSLSSYAMIWVRQAPGKGLEWIGIIYDNGDTYYASWAKGRFTISKTSTTVYLKIASPTTEDTATYFCAREPGSTTQNDLWGQGTLVTVSS
VL: DVVMTQTPASVSEPVGGTVTIKCQASENIYNSLLWYQQKPGQPPKLLIYRASTLASGVSSRFKGSGSGTEFTLTISDLECADAATYYCQNYYNIWTNGAAFGGGTEVVVKR
notes: full-length rabbit/human chimeric antibody
B2: anti-PACAP antibody Ab16 (antibody, human IgG1, kappa, N297A, V domains shown)
VH: QSVEESGGRLVTPGTPLTLTCTVSGFSLSSAAMSWVRQAPGKGLEWIGIIDDSGNTYYASWAKARFTISKTSSTTVDLKMTSPTTEDTATYFCARGGGEFFIWGPGTLVTVSS
VL: DPVLTQTPSSVSAAVGGTVTINCQSSQSVYNNKWLSWYQQKPGQSPKFLIYQASNLASGVPSRFKGSGSGTQFTLTISDLECDDGATYYCAGGYRGNVCGFGGGTEVVVKR
notes: as for B1
B3: anti-PACAP antibody Ab18 (antibody, human IgG1, kappa, N297A, V domains shown)
VH: B2 VH with M33L, D52K, S53G, G54V, N55M, T56S, A64G, M80V, P105Q
VL: B2 VL with D1A, P2Q, Q27K, K33N, S45P, G85A, R95S, V98I, C99V
notes: as for B1
B4: anti-PACAP antibody Ab17 (antibody, human IgG1, kappa, N297A, V domains shown)
VH: B2 VH with S34N, I50F, D52P, S53Y, G54S, N55S, A64G
VL: AQVLTQTPSSVSAAVGGTVTINCQSSQSVYKNKYLSWYQQKVGQPPKFLIYQASNLASGVPSRFKGSGSGTQFTLTISDLECDDAATYYCAGGYSGNMVDFGGGTEVVVKR
notes: as for B1
B5: anti-PACAP antibody Ab15 (antibody, human IgG1, kappa, N297A, V domains shown)
VH: QSVEASGGHLVTPGTPLTLTCTVSGFSLSSAAMNWVRQAPGKGLEWIGSVDERQNKYYASWAKGRFTISRTSSTTVNLKMTSPTTEDTATYFCARGGGEFFIWGQGTLVTVSS
VL: AQVLTQTPSSVSAAVGGTVTINCQSSQSVYSNNRLSWYQQKPGQPPNLLIYEASSLASGVPSRFSGSGSGTQFTLTISDLECDDAATYYCAGAYNTGIYGFGGGTEVVVKR
notes: as for B1
B6: anti-PACAP antibody Ab19 (antibody, human IgG1, kappa, N297A, V domains shown)
VH: QSVEASGGRLVTPGTPLTLTCTVSGFSLSSATMNWVRQAPGKGLEWIGLIGGNDERYYASWAKGRFTISKTSSTTVDLKMTSPTTEDTATYFCARGGGEFFIWGPGTLVTVSS
VL: B5 VL with Q27E, S31T, N33D, N47K, S55K, S62P, N95S, G97S, Y99H
notes: as for B1
B7: anti-PACAP antibody Ab4 (antibody, human IgG1, kappa, N297A, V domains shown)
VH: QSVEESGGRLVTPGTPLTLTCTVSGFSLSSYDMSWVRQAPGKGLEYIGIINTNDDTWYASWVKGRFTISKTSSTTVDLKMTSLTTEDTATYFCARISDAYVFDYAYYFTLWGQGTLVTVSS
VL: ALVMTQTPSSVSAAVGGTVTINCLASQNIYNSLAWYQQKPGQPPKLLIYRASTLASGVSSRFKGSGSGTQFTLTISGVECADAATYYCQQGAGADNIGNPFGGGTEVVVKR
notes: as for B1

Target: T1, human PACAP27
Assay: SPR, Ab immobilised
Description: [The procedure below names another target; the source says it served here with some conditions changed.] (§1) Binding affinities of monoclonal antibodies for human PACAP were estimated using SPR on the PROTEON™ XPR36 (Bio-Rad, Hercules, Calif.). Antibody was immobilized to the surface of general amine coupling (“GLC” or “GLM”) Chips (Bio-Rad, Hercules, Calif.). A dilution series of human PACAP38 (SEQ ID NO: 1241) prepared in 1×PBST Buffer (4.3 mM Na Phosphate, 1.4 mM K Phosphate, 135 mM NaCl, 2.7 mM KCl 0.05% Polysorbate-20) purchased from Teknova (Cat# P1192, Teknova, Hollister, Calif.) and supplemented with 0.25 M arginine (from J.T. BAKER®), 0.2 mg/ml BSA (Jackson Immuno Research Labs, West Grove, Pa.), and 0.005% sodium azide (VWR International, Radnor, Pa.) with the pH adjusted to 7 was used to query the antibodies. Antigen (ranging from 1.23 nM to 100 nM) was typically run sequentially with association times of 2-4 minutes and dissociation times of 3-120 minutes grouped with the PROTEON™ Manager Software (v3.1.0.6 (Bio-Rad, Hercules, Calif.)) and fitted using a 1:1 Langmuir binding model. Surfaces were regenerated between analyte queries using 0.85% Phosphoric Acid.

Kd [nM] | koff [s⁻¹] | kon [M⁻¹ s⁻¹] | Binder
0.096 | 2.4e-05 | 250000 | B1
0.035 | 2.9e-05 | 820000 | B2
≤ 0.023 | ≤ 1e-05 | 440000 | B3
≤ 0.027 | ≤ 1e-05 | 370000 | B4
0.17 | 7.8e-05 | 470000 | B5
0.31 | 0.00013 | 420000 | B6
0.51 | 0.0002 | 390000 | B7

Target: T2, human PACAP38
Assay: SPR, Ab immobilised
Description: as §1

Kd [nM] | koff [s⁻¹] | kon [M⁻¹ s⁻¹] | Binder
≤ 0.041 | ≤ 1e-05 | 240000 | B1
≤ 0.011 | ≤ 1e-05 | 910000 | B2
≤ 0.023 | ≤ 1e-05 | 430000 | B3
≤ 0.02 | ≤ 1e-05 | 500000 | B4
0.05 | 2.7e-05 | 530000 | B5
0.093 | 2.5e-05 | 270000 | B6
0.22 | 7.2e-05 | 330000 | B7

Target: T3, human VIP
Assay: SPR, Ab immobilised
Description: [The procedure below names another target; the source says it served here with some conditions changed.] as §1

Kd [nM] | koff [s⁻¹] | kon [M⁻¹ s⁻¹] | Binder
7200 | 0.86 | 120000 | B1
260 | 0.096 | 360000 | B2
400 | 0.12 | 310000 | B3
55 | 0.017 | 310000 | B4
820 | 0.13 | 160000 | B5
1000 | 0.28 | 280000 | B6
120 | 0.021 | 170000 | B7

Target: T2, human PACAP38
Assay: cell-based or functional assay

IC50, 1 nM PACAP38-induced human VPAC2-R mediated cAMP increase [nM] | Binder
0.239 | B1
1.15 | B2
0.285 | B3
0.205 | B4
22.9 | B5
0.954 | B6
0.218 | B7

Target: T1, human PACAP27
Assay: cell-based or functional assay

IC50, 0.1 nM PACAP27-induced PAC1-R mediated cAMP increase [nM] | Binder
0.353 | B1
0.192 | B2
0.0916 | B3
0.0776 | B4
0.155 | B5
0.0874 | B6
0.0769 | B7

Target: T2, human PACAP38
Assay: cell-based or functional assay
Remark: another data set of the same source

IC50, 0.1 nM PACAP38-induced PAC1-R mediated cAMP increase [nM] | Binder
0.327 | B1
0.212 | B2
0.118 | B3
0.0977 | B4
0.162 | B5
0.101 | B6
0.34 | B7

Target: T2, human PACAP38
Assay: inhibition of 100 nM biotin-PACAP38 binding to PC-12 cells, TRF
Description: To identify antibodies that block PACAP38 binding to PAC1-R-expressing cells, adherent PC-12 cells (ATCC, Manassas, Va.) expressing PAC1-R were used in a Europium-based PAC1-R expressing cells binding assay.
Antibody solutions were incubated with N-terminal biotinylated PACAP38 at 10× the final concentration (100 nM or 30 nM) for 1 hr, then added to PC-12 cells that were plated 24 hrs. prior in black clear bottom 96 well plates (COSTAR™, Corning Incorporated, Corning, N.Y.) and further incubated for 1 hr at room temperature. After three washes, the cells were incubated with 20 μl Europium-labeled streptavidin (PerkinElmer, Waltham, Mass.) for 1 hr at room temperature. Cells were washed three times, then 20 μl DELFIA® Enhancement solution (PerkinElmer, Waltham, Mass.) was added to each well and incubated for 15 minutes with gentle shaking. Plates were read (Time Resolved Fluorescence (“TRF”)) on SPECTRAMAX® (Molecular Devices, Sunnyvale, Calif.) plate reader.
FIGS. 14A-14BB are representative of the inhibition curves obtained by this method (results are shown for Ab1, Ab2, Ab3, Ab4, Ab5, Ab6, Ab7, Ab8, Ab9, Ab10, Ab11, Ab12, Ab13, Ab14, Ab15, Ab16, Ab17, Ab18, Ab19, Ab1.H, Ab10.H, Ab22, Ab23, Ab3.H, Ab4.H, Ab5.H, Ab9.H, and Ab12.H, respectively) wherein the PAC1-R expressing cells were PC-12 cells.

IC50 [nM] | Binder
16.3 | B1
27.3 | B2
30.6 | B3
33.1 | B4
36.7 | B5
162 | B6
28.6 | B7

Target: T2, human PACAP38
Assay: HTRF binding, biotin-PACAP38
Description: In parallel, 10 μl of an antibody dilution series (highest final concentration of 100 nM) were incubated with 10 μl of N-terminal or C-terminal biotinylated PACAP38 (35 nM final) alone, or in combination with either PACAP27 (350 nM final) or VIP (350 nM final), i.e., 10× PACAP27 or 10×VIP, respectively, in a HTRF plate. 20 μl of Eu³⁺ cryptate labeled anti-hu Fc donor and 20 μl of d2-labeled streptavidin acceptor were added to each well and incubated for 1 hour at room temperature. Fluorescence was measured at 620 and 665 nm with a delay of 300 μsec.
EC₅₀ values, i.e. the concentration of an antibody that yields a response halfway between the baseline and the maximum value within a specified time period, were computed for each antibody based upon their binding curves and are shown in Table 1 below. […] A humanized form of antibody Ab1 was produced and is identified by an appended “.H”, i.e., Ab1.H, and it also bound PACAP38 with high affinity.

EC50 [nM] | Binder
0.6 | B1
0.68 | B2
0.48 | B3
0.46 | B4
0.62 | B5
0.43 | B6
0.66 | B7

Target: T2, human PACAP38
Assay: cell-based or functional assay
Remark: another data set of the same source

IC50, 5 nM PACAP38-induced human VPAC1-R mediated cAMP increase [nM] | Binder
0.721 | B1
3.53 | B2
0.911 | B3
0.78 | B4
3.71 | B5
0.827 | B6
0.943 | B7
